In one data set the target is T1, ATPTT1 (Tetrahymena thermophila, UniProt I7LVQ8).
T1 construct: gene TTHERM_00137990; 55-kDa Fo-wing subunit of native mitochondrial ATP synthase dimer, purified in digitonin from T. thermophila mitochondria
T1 sequence (I7LVQ8 1-480): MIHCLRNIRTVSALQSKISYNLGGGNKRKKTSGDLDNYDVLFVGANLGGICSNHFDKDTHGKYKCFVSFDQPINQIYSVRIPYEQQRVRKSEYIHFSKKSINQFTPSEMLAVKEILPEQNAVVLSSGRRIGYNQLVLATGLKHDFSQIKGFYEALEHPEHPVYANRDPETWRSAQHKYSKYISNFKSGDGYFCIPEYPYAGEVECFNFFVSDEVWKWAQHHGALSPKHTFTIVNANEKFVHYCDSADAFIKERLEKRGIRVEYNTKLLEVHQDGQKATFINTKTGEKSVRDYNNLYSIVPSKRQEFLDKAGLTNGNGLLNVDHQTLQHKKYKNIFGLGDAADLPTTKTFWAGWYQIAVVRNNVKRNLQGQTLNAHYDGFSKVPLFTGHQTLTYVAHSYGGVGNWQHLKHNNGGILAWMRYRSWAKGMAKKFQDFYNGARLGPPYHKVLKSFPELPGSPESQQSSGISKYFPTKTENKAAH
In words: cryo-EM structure. The class given is binding. Conditions: co-purified native cofactor in pocket of two Rossmann folds; oxidation state not stated.

Data set [1] deals with F1 inhibitor protein IF1 (Tetrahymena thermophila (endogenous in its mitochondria)). In words: cryo-EM structure; native IF1-inhibited ATP synthase dimer purified from T. thermophila mitochondria in digitonin (25 mM Hepes/KOH pH 7.5, 25 mM KCl, 5 mM MgCl2, 0.1% w/v digitonin); 2.7 Å overall, masked refinements 2.5-3.1 Å.
The target in data set [2] is type III mitochondrial F1Fo-ATP synthase (monomer) in complex with IF1 (Tetrahymena thermophila (endogenous in its mitochondria)) (UniProt Q951C1). The description is as above.
Data set [3] has the same target. In words: cryo-EM structure; native ATP synthase tetramer particles of the same sample; 3.3 Å overall, Fo tetramer membrane region 3.1 Å; two dimer models refined into the Fo-tetramer map.
Data set [4] concerns the molecule itself. Description: cryo-EM structure; native IF1-inhibited ATP synthase dimer purified from T. thermophila mitochondria in digitonin (25 mM Hepes/KOH pH 7.5, 25 mM KCl, 5 mM MgCl2, 0.1% w/v digitonin); 2.7 Å overall, masked refinements 2.5-3.1 Å.

The stoichiometry N is a count of units in the complex or per binding partner.

As to `NC(=O)c1ccc[n+]([C@@H]2O[C@H](COP(=O)([O-])OP(=O)(O)OC[C@H]3O[C@@H](n4cnc5c(N)ncnc54)[C@H](O)[C@@H]3O)[C@@H](O)[C@H]2O)c1` [NAD], the cryo-EM structure result at ATPTT1 is “in ATPTT1 the binding pocket formed by two Rossmann folds contains the co-factor”.

Turning to “F1 inhibitor protein IF1 (natural protein)”, the stoichiometry N in data set [1] stood at 2.

Take “type III mitochondrial F1Fo-ATP synthase (monomer) in complex with IF1 (from UniProt Q951C1 1-446)”: the stoichiometry N in data set [2] came out at 2; in data set [3], 4.

B1: ATP synthase subunit-a (natural protein, UniProt Q951C1 1-446, looked up)
chain: MGRENVLPVHNDVYEDFVFTTPYFQPESTFKSVPKLFSDILLGGVEWVYTTSESVLAYDYKLWYLWSGVSNLDESFDMFFNQYWALSLSTSVFQLFYAVILDRYLSVLFQNTPYTNDWFRMMLHSKETALIWLYHPELSWHINGLNQFFTYFYGGILEFVYFDKSNPDMCILVHTLWIHLLILFLIFTGFVTILFSFYGNPNTEENTIDSDYLAASGTVEAEKEITSIDDYLGLVFAIAYVFGVFFYVHGWTSMLSHAVLLLSCYSIIIMFLFILGMPTLLLYDFGIFFLAYLKGAGKYISSVAEMMFDYTACLVFYIRILAQWIRVVLMVVTFISLSHYVSDFDITNSALIGSENQSDSMNELNTNFSMTYYILTVLPGKFIYWIYEILHTFFVVCSQFVAFFAIVFWLFLFLYTFFIIEKHEDFFSKKREERKKKLKELWNLKN
notes: ATP synthase subunit a, Tetrahymena thermophila; overall length of 446 amino acids, with 170- and 38-amino acid N- and C-terminal extensions; source: endogenous, purified from T. thermophila mitochondria within the ATP synthase (digitonin, sucrose cushion, Superose 6)
B1: in data set [4], the binding result is “binds”.

For the origin of these results see publication PMC7583250, “Type III ATP synthase is a symmetry-deviated dimer that induces membrane curvature through tetramerization” (Nature Communications, 2020).
